Measured values: publication PMC10421740, “A universal deep-learning model for zinc finger design enables transcription factor reprogramming”

Key:
[1] = molecular target: ZFN pair 10BC_selected + 10ED_selected (synthetic construct, UniProt P14870;P14870 384-579;384-579); experiment: Zn; U2OS eGFP disruption, 3 days after nucleofection; conditions: tags: N-terminal 3xFLAG and SV40 NLS (kept in the assay, left out here); copies: 1;1
[2] = molecular target: ZFN pair 10BC_designed + 10ED_designed (synthetic construct, UniProt P14870;P14870 384-579;384-579); experiment: as above; conditions: tags: N-terminal 3xFLAG and SV40 NLS (kept in the assay, left out here); copies: 1;1
[3] = molecular target: ZFN pair 10BC_substituted + 10ED_substituted (synthetic construct, UniProt P14870;P14870 384-579;384-579); experiment: as above; conditions: tags: N-terminal 3xFLAG and SV40 NLS (kept in the assay, left out here); copies: 1;1
[4] = molecular target: ZFN pair 12BC_substituted + 12ED_substituted (synthetic construct, UniProt P14870;P14870 384-579;384-579); experiment: as above; conditions: tags: N-terminal 3xFLAG and SV40 NLS (kept in the assay, left out here); copies: 1;1
[5] = molecular target: T1, ZFN pair 12BC_selected + 12ED_selected (synthetic construct, UniProt P14870;P14870 384-579;384-579); experiment: as above; conditions: tags: N-terminal 3xFLAG and SV40 NLS (kept in the assay, left out here); copies: 1;1
T1 chain 1: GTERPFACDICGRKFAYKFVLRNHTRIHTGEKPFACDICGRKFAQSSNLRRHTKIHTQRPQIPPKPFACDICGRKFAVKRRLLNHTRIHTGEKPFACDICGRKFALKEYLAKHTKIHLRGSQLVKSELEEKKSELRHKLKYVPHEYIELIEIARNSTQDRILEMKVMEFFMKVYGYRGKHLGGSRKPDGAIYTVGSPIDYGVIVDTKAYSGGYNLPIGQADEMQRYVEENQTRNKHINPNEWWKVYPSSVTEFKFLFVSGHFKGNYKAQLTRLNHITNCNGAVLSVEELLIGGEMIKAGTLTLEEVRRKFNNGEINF
T1 chain 2: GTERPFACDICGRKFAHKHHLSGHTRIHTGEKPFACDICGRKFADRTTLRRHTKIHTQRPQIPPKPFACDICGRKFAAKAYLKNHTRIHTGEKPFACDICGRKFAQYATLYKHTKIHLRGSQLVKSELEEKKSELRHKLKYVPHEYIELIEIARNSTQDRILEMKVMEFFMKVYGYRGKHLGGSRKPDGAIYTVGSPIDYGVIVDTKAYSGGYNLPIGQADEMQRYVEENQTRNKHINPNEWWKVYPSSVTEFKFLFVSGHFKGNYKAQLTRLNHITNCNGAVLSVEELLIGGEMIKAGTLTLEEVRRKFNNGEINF

[6] = molecular target: ZFN pair 12BC_designed + 12ED_designed (synthetic construct, UniProt P14870;P14870 384-579;384-579); experiment: as above; conditions: tags: N-terminal 3xFLAG and SV40 NLS (kept in the assay, left out here); copies: 1;1
[7] = molecular target: ZFN pair 18BC_designed + 18ED_designed (synthetic construct, UniProt P14870;P14870 384-579;384-579); experiment: as above; conditions: tags: N-terminal 3xFLAG and SV40 NLS (kept in the assay, left out here); copies: 1;1
[8] = molecular target: ZFN pair 18BC_selected + 18ED_selected (synthetic construct, UniProt P14870;P14870 384-579;384-579); experiment: as above; conditions: tags: N-terminal 3xFLAG and SV40 NLS (kept in the assay, left out here); copies: 1;1
[9] = molecular target: T2, KLF6 reprogrammed with array CDKN1C_200 8Q (synthetic construct, UniProt Q99612 1-199); experiment: Zn; HEK293T, RT-qPCR 3 days after transfection; conditions: tags: C-terminal linker + 3xFLAG (left out)
T2 chain: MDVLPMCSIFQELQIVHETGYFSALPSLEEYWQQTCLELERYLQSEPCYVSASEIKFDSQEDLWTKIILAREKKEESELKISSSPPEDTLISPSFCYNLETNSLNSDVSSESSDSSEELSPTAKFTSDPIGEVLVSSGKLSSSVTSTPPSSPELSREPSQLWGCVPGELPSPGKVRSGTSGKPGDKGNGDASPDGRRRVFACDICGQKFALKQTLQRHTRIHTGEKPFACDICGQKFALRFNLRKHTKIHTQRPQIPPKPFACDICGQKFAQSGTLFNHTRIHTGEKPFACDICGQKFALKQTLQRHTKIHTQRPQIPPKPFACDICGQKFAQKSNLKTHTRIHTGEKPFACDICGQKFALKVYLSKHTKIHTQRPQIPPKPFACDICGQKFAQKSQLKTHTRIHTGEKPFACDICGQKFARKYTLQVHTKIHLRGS

[10] = molecular target: T3, KLF6 reprogrammed with array CDKN1C_200 F3-8 (synthetic construct, UniProt Q99612 1-199); experiment: Zn; HEK293T, RT-qPCR 3 days after transfection
T3 chain: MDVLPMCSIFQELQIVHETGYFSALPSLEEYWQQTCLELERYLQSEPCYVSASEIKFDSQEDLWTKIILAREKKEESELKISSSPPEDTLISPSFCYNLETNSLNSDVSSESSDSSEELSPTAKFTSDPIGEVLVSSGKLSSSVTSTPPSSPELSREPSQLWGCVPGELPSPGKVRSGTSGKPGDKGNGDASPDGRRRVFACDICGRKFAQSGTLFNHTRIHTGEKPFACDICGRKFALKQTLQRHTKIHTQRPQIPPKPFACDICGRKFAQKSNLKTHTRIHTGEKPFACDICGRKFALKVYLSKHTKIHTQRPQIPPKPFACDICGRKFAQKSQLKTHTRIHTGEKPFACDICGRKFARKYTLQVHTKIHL

[11] = molecular target: T4, KLF6 reprogrammed with array CDKN1C_200 (synthetic construct, UniProt Q99612 1-199); experiment: Zn; HEK293T, RT-qPCR 3 days after transfection
T4 chain: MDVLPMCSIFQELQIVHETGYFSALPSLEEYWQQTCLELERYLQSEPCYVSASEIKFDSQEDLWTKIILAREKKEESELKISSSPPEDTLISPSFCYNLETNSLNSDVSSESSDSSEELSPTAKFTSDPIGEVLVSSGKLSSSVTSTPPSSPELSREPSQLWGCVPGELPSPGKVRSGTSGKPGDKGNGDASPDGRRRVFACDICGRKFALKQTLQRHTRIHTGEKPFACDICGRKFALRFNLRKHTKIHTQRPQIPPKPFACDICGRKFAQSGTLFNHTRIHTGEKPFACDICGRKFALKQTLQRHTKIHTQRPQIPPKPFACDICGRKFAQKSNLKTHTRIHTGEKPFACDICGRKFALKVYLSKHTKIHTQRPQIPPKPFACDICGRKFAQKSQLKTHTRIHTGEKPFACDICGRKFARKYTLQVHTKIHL

[12] = molecular target: ZIM3 reprogrammed with array DPH1_15 F3-8 (synthetic construct, UniProt Q96PE6 1-166); experiment: Zn; HEK293T, RT-qPCR 3 days after transfection
Chain of ZIM3 reprogrammed with array DPH1_15 F3-8 (Q96PE6 other isoform, or with tags, fused parts or gaps): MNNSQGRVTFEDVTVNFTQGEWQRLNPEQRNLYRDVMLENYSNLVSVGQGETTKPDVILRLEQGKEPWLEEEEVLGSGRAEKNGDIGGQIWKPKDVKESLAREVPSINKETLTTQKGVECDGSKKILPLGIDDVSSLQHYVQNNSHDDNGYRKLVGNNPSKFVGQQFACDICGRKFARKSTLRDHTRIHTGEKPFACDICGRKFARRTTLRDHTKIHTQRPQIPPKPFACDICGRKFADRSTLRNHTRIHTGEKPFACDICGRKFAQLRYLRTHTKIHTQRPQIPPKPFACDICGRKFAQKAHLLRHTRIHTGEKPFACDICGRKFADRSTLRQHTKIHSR

[13] = molecular target: ZIM3 reprogrammed with array DPH1_15 F1-8 Q (synthetic construct, UniProt Q96PE6 1-166); experiment: Zn; HEK293T, RT-qPCR 3 days after transfection
Chain of ZIM3 reprogrammed with array DPH1_15 F1-8 Q (Q96PE6 other isoform, or with tags, fused parts or gaps): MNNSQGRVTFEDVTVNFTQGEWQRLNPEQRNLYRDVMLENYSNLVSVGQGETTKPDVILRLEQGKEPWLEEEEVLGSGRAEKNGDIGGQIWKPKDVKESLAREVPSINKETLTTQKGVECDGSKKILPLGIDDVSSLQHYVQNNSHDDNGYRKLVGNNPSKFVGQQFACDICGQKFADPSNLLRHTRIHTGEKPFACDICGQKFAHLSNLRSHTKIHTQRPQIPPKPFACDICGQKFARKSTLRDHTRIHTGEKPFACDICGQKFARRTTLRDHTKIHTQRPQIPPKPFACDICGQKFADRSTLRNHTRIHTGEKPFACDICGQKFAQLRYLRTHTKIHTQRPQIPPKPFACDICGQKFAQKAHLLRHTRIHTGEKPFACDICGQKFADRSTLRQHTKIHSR

[14] = molecular target: ZIM3 reprogrammed with array DPH1_15 (synthetic construct, UniProt Q96PE6 1-166); experiment: Zn; HEK293T, RT-qPCR 3 days after transfection
Chain of ZIM3 reprogrammed with array DPH1_15 (Q96PE6 other isoform, or with tags, fused parts or gaps): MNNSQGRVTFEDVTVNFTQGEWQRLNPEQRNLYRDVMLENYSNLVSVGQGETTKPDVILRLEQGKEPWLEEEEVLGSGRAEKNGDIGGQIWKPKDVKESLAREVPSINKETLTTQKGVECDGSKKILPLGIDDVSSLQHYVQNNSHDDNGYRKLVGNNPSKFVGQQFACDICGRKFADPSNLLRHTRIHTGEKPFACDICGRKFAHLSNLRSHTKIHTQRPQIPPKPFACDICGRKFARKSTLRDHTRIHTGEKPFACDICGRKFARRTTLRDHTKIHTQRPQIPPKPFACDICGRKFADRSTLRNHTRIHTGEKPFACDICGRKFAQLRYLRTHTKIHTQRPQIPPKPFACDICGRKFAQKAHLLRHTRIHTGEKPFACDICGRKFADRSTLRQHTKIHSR

[15] = molecular target: ZIM3 reprogrammed with array DPH1_15 F1-6 (synthetic construct, UniProt Q96PE6 1-166); experiment: Zn; HEK293T, RT-qPCR 3 days after transfection
Chain of ZIM3 reprogrammed with array DPH1_15 F1-6 (Q96PE6 other isoform, or with tags, fused parts or gaps): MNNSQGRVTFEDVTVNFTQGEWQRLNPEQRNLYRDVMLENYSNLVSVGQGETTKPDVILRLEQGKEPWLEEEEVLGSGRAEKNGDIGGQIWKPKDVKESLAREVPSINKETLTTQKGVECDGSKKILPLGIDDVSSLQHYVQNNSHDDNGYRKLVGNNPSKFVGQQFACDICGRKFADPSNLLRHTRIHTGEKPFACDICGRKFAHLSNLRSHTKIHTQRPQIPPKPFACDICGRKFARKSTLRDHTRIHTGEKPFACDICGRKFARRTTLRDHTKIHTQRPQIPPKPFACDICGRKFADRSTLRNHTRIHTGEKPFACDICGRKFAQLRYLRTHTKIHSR

[16] = molecular target: ZIM3 reprogrammed with array DPH1T2F8 (synthetic construct, UniProt Q96PE6 1-166); experiment: Zn; HEK293T, RT-qPCR 3 days after transfection
Chain of ZIM3 reprogrammed with array DPH1T2F8 (Q96PE6 other isoform, or with tags, fused parts or gaps): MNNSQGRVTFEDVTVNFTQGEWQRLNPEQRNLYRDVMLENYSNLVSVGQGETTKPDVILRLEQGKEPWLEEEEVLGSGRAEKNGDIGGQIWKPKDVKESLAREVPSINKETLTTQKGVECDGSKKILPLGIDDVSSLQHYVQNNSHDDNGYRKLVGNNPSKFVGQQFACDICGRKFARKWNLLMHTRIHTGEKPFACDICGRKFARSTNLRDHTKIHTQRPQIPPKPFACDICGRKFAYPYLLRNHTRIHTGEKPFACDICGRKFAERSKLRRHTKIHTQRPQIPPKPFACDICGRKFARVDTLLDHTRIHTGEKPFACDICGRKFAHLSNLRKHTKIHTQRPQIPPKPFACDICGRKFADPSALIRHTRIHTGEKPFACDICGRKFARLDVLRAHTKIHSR

[17] = molecular target: ZIM3 reprogrammed with array DPH1T2R8 (synthetic construct, UniProt Q96PE6 1-166); experiment: Zn; HEK293T, RT-qPCR 3 days after transfection
Chain of ZIM3 reprogrammed with array DPH1T2R8 (Q96PE6 other isoform, or with tags, fused parts or gaps): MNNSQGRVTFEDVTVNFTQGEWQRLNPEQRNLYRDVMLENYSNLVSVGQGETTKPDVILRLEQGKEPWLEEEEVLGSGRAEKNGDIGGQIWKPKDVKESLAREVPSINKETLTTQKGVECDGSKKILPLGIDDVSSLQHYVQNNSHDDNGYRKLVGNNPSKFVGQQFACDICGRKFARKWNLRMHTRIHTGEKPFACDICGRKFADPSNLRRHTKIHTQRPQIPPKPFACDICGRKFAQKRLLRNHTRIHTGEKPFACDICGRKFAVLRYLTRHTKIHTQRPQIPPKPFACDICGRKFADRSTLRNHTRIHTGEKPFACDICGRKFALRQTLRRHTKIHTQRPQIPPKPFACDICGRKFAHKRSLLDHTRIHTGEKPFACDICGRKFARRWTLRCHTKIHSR

[18] = molecular target: ZIM3 reprogrammed with array DPH1TSSR (synthetic construct, UniProt Q96PE6 1-166); experiment: Zn; HEK293T, RT-qPCR 3 days after transfection
Chain of ZIM3 reprogrammed with array DPH1TSSR (Q96PE6 other isoform, or with tags, fused parts or gaps): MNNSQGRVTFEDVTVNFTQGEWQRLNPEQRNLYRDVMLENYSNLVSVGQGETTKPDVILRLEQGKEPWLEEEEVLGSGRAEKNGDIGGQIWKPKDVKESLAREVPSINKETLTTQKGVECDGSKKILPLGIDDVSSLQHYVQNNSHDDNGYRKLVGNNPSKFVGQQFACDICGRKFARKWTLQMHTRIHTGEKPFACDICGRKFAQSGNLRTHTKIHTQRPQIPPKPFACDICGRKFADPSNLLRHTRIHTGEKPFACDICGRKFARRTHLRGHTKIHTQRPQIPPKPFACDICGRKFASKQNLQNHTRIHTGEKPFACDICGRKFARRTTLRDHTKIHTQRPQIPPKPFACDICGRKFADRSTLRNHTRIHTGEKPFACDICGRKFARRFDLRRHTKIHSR

[19] = molecular target: ZIM3 reprogrammed with array Rab1a T2R8 (synthetic construct, UniProt Q96PE6 1-166); experiment: Zn; HEK293T, RT-qPCR 3 days after transfection
Chain of ZIM3 reprogrammed with array Rab1a T2R8 (Q96PE6 other isoform, or with tags, fused parts or gaps): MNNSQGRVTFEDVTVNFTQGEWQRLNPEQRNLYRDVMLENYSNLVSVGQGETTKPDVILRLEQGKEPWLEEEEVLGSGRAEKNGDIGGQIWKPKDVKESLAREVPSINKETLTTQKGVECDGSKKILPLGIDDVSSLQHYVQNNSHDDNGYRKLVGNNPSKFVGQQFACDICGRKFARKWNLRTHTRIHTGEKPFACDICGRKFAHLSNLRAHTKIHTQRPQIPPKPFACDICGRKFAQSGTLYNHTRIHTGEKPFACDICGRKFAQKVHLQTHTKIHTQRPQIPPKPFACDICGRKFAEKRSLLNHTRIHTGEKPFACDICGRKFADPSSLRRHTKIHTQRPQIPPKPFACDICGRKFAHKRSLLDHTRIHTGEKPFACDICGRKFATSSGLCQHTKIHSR

[20] = molecular target: ZIM3 reprogrammed with array UBE4A T1F8 (synthetic construct, UniProt Q96PE6 1-166); experiment: Zn; HEK293T, RT-qPCR 3 days after transfection
Chain of ZIM3 reprogrammed with array UBE4A T1F8 (Q96PE6 other isoform, or with tags, fused parts or gaps): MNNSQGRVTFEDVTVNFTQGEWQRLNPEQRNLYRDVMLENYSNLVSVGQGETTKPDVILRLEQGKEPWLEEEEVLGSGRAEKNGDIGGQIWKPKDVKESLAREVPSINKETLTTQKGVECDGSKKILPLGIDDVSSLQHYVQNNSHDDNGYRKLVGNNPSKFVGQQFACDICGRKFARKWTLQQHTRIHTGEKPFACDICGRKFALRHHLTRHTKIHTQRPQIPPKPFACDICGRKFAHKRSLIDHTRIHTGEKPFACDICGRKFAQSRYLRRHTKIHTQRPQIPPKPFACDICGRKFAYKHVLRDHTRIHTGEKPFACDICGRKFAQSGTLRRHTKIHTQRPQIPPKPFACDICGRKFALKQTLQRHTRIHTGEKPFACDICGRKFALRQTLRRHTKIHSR

[21] = molecular target: ZIM3 reprogrammed with array UBE4A T1R8 (synthetic construct, UniProt Q96PE6 1-166); experiment: Zn; HEK293T, RT-qPCR 3 days after transfection
Chain of ZIM3 reprogrammed with array UBE4A T1R8 (Q96PE6 other isoform, or with tags, fused parts or gaps): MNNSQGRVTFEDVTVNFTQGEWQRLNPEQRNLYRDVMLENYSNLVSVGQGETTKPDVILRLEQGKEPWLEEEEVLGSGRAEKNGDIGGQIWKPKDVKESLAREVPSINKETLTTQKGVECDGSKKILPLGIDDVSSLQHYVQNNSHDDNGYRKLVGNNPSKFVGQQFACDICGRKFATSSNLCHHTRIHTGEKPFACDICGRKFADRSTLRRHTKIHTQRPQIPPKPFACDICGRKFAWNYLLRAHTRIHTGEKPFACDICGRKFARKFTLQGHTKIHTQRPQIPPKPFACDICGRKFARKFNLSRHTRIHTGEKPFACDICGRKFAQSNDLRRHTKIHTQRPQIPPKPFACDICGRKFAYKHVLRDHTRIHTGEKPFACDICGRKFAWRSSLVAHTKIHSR

array CDKN1C 125RC = array CDKN1C 125RC (synthetic construct); experiment: Zn; HEK293T, RNA-seq; conditions: tags: N-terminal SV40 NLS, C-terminal GS linker + VP64 (left out)
Chain of array CDKN1C 125RC (synthetic construct) (chain, as listed by the source): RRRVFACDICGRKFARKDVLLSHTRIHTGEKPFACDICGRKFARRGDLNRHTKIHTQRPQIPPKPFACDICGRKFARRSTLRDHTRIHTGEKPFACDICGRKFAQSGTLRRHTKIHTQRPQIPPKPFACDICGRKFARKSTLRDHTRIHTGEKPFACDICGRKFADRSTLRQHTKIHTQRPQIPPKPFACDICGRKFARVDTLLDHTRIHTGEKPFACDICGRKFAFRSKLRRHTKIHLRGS

B1: eGFP site 10 (8 fingers) (dsDNA)
DNA 1: TACGGCAAGCTGACCCTGAAGTTCATCTGCACCA
DNA 2: TGGTGCAGATGAACTTCAGGGTCAGCTTGCCGTA
[1]
  binding signal: ~59 % GFP-negative cells (higher = more activity)
[2]
  binding signal: ~28 % GFP-negative cells (higher = more activity)
[3]
  binding signal: ~38 % GFP-negative cells (higher = more activity)

B2: eGFP site 12 (8 fingers) (dsDNA)
DNA 1: GAAGTTCATCTGCACCACCGGCAAGCTGCCCGTG
DNA 2: CACGGGCAGCTTGCCGGTGGTGCAGATGAACTTC
[4]
  binding signal: ~58 % GFP-negative cells (higher = more activity)
[5]
  binding signal: ~65 % GFP-negative cells (higher = more activity)
[6]
  binding signal: ~24 % GFP-negative cells (higher = more activity)

B3: eGFP site 18 (8 fingers) (dsDNA)
DNA 1: GCAGCACGACTTCTTCAAGTCCGCCATGCCCGAA
DNA 2: TTCGGGCATGGCGGACTTGAAGAAGTCGTGCTGC
[7]
  binding signal: ~70 % GFP-negative cells (higher = more activity)
[8]
  binding signal: ~47 % GFP-negative cells (higher = more activity)

B4: CDKN1C_200 (dsDNA)
DNA 1: TTGAAACTGAAAATACTACATTATGCTA
DNA 2: TAGCATAATGTAGTATTTTCAGTTTCAA
[9]
  binding signal: ~11 relative expression (higher = more activity)
[10]
  binding signal: ~3.2 relative expression (higher = more activity)
[11]
  binding signal: ~17 relative expression (higher = more activity)

B5: DPH1_15 (dsDNA)
DNA 1: CCCGGATACGACCAGCGCCGCCATCACC
DNA 2: GGTGATGGCGGCGCTGGTCGTATCCGGG
[12]
  binding signal: ~0.12 relative expression (lower = more activity, repressor)
[13]
  binding signal: ~0.67 relative expression (lower = more activity, repressor)
[14]
  binding signal: ~0.13 relative expression (lower = more activity, repressor)
[15]
  binding signal: ~0.62 relative expression (lower = more activity, repressor)

B6: DPH1T2F8 (dsDNA)
DNA 1: CTGGTCGTATCCGGGGCAGCGGAGCAGG
DNA 2: CCTGCTCCGCTGCCCCGGATACGACCAG
[16]
  binding signal: ~0.67 relative expression (lower = more activity, repressor)

B7: DPH1T2R8 (dsDNA)
DNA 1: CTGCTCCGCTGCCCCGGATACGACCAGC
DNA 2: GCTGGTCGTATCCGGGGCAGCGGAGCAG
[17]
  binding signal: ~0.77 relative expression (lower = more activity, repressor)

B8: DPH1TSSR (dsDNA)
DNA 1: CCTGCCTGCGCATGTGGTACTAAAAAGA
DNA 2: TCTTTTTAGTACCACATGCGCAGGCAGG
[18]
  binding signal: ~0.58 relative expression (lower = more activity, repressor)

B9: Rab1a T2R8 (dsDNA)
DNA 1: CTACTCCGTCCCCTAGAACACAATCAGC
DNA 2: GCTGATTGTGTTCTAGGGGACGGAGTAG
[19]
  binding signal: ~0.41 relative expression (lower = more activity, repressor)

B10: UBE4A T1F8 (dsDNA)
DNA 1: GCTGCTGGCACTTCAGGCTCTGGTAAGA
DNA 2: TCTTACCAGAGCCTGAAGTGCCAGCAGC
[20]
  binding signal: ~0.57 relative expression (lower = more activity, repressor)

B11: UBE4A T1R8 (dsDNA)
DNA 1: TGTCTTACCAGAGCCTGAAGTGCCAGCA
DNA 2: TGCTGGCACTTCAGGCTCTGGTAAGACA
[21]
  binding signal: ~0.22 relative expression (lower = more activity, repressor)

B12: CDK125RC (dsDNA)
DNA 1: GCGGCCCGGCCCCCGCGCACCGCCCATTGGC
DNA 2: GCCAATGGGCGGTGCGCGGGGGCCGGGCCGC
Array CDKN1C 125RC
  binding signal: ~2.2 log2 fold change (RNA-seq) (higher = more activity)
